*1 amine or outer side, *2 acyl side, *3 side chain or, on linkers, in order; H or OH if unused. Side-chain parts run from the residue outwards. The star is where a group is joined. C18 diacid = O=C(O)CCCCCCCCCCCCCCCCC(=O)*; γGlu = O=C(O)[C@H](CCC(=O)[*:2])N[*:1]; Isovaleryl = CC(C)CC(=O)*; Ahx = NCCCCCC(=O)O

First the molecules themselves.
T1: human NPY2 receptor (human, UniProt P49146 1-381)
T1 construct: whole, on cells; also called hNPY2-R; hNPY2R
T1 sequence (looked up): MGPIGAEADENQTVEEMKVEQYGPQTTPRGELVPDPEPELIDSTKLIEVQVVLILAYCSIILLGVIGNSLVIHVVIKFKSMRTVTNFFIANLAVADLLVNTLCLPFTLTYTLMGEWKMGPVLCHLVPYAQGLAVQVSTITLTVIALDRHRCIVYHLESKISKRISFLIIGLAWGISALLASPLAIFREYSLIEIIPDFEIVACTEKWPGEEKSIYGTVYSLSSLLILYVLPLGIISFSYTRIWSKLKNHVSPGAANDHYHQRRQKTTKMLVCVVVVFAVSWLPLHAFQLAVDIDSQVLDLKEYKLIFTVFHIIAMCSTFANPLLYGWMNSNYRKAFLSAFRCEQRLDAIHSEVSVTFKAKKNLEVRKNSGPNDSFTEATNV

B1: Compound 173 (peptide)
peptide: Isovaleryl-APEK([Ahx-γGlu-C18 diacid])PEEDATPEELQRYYVSLRHYYNWLTRQRY-NH2
SMILES: CC(C)CC(=O)N[C@@H](C)C(=O)N1CCC[C@H]1C(=O)N[C@@H](CCC(=O)O)C(=O)N[C@@H](CCCCNC(=O)CCCCCNC(=O)CC[C@H](NC(=O)CCCCCCCCCCCCCCCCC(=O)O)C(=O)O)C(=O)N1CCC[C@H]1C(=O)N[C@@H](CCC(=O)O)C(=O)N[C@@H](CCC(=O)O)C(=O)N[C@@H](CC(=O)O)C(=O)N[C@@H](C)C(=O)N[C@H](C(=O)N1CCC[C@H]1C(=O)N[C@@H](CCC(=O)O)C(=O)N[C@@H](CCC(=O)O)C(=O)N[C@@H](CC(C)C)C(=O)N[C@@H](CCC(N)=O)C(=O)N[C@@H](CCCNC(=N)N)C(=O)N[C@@H](Cc1ccc(O)cc1)C(=O)N[C@@H](Cc1ccc(O)cc1)C(=O)N[C@H](C(=O)N[C@@H](CO)C(=O)N[C@@H](CC(C)C)C(=O)N[C@@H](CCCNC(=N)N)C(=O)N[C@@H](Cc1c[nH]cn1)C(=O)N[C@@H](Cc1ccc(O)cc1)C(=O)N[C@@H](Cc1ccc(O)cc1)C(=O)N[C@@H](CC(N)=O)C(=O)N[C@@H](Cc1c[nH]c2ccccc12)C(=O)N[C@@H](CC(C)C)C(=O)N[C@H](C(=O)N[C@@H](CCCNC(=N)N)C(=O)N[C@@H](CCC(N)=O)C(=O)N[C@@H](CCCNC(=N)N)C(=O)N[C@@H](Cc1ccc(O)cc1)C(N)=O)[C@@H](C)O)C(C)C)[C@@H](C)O
B2: Compound 8 (peptide)
peptide: Isovaleryl-APEK([Ahx-γGlu-C18 diacid])PEEDETPEELQRYYVSLRHYYNWLTRQRY-NH2
SMILES: CC(C)CC(=O)N[C@@H](C)C(=O)N1CCC[C@H]1C(=O)N[C@@H](CCC(=O)O)C(=O)N[C@@H](CCCCNC(=O)CCCCCNC(=O)CC[C@H](NC(=O)CCCCCCCCCCCCCCCCC(=O)O)C(=O)O)C(=O)N1CCC[C@H]1C(=O)N[C@@H](CCC(=O)O)C(=O)N[C@@H](CCC(=O)O)C(=O)N[C@@H](CC(=O)O)C(=O)N[C@@H](CCC(=O)O)C(=O)N[C@H](C(=O)N1CCC[C@H]1C(=O)N[C@@H](CCC(=O)O)C(=O)N[C@@H](CCC(=O)O)C(=O)N[C@@H](CC(C)C)C(=O)N[C@@H](CCC(N)=O)C(=O)N[C@@H](CCCNC(=N)N)C(=O)N[C@@H](Cc1ccc(O)cc1)C(=O)N[C@@H](Cc1ccc(O)cc1)C(=O)N[C@H](C(=O)N[C@@H](CO)C(=O)N[C@@H](CC(C)C)C(=O)N[C@@H](CCCNC(=N)N)C(=O)N[C@@H](Cc1c[nH]cn1)C(=O)N[C@@H](Cc1ccc(O)cc1)C(=O)N[C@@H](Cc1ccc(O)cc1)C(=O)N[C@@H](CC(N)=O)C(=O)N[C@@H](Cc1c[nH]c2ccccc12)C(=O)N[C@@H](CC(C)C)C(=O)N[C@H](C(=O)N[C@@H](CCCNC(=N)N)C(=O)N[C@@H](CCC(N)=O)C(=O)N[C@@H](CCCNC(=N)N)C(=O)N[C@@H](Cc1ccc(O)cc1)C(N)=O)[C@@H](C)O)C(C)C)[C@@H](C)O
B3: Compound 3 (peptide)
peptide: Isovaleryl-APAK([Ahx-γGlu-C18 diacid])PEADAEPEELQRYYVALRHYYNWLTRQRY-NH2
SMILES: CC(C)CC(=O)N[C@@H](C)C(=O)N1CCC[C@H]1C(=O)N[C@@H](C)C(=O)N[C@@H](CCCCNC(=O)CCCCCNC(=O)CC[C@H](NC(=O)CCCCCCCCCCCCCCCCC(=O)O)C(=O)O)C(=O)N1CCC[C@H]1C(=O)N[C@@H](CCC(=O)O)C(=O)N[C@@H](C)C(=O)N[C@@H](CC(=O)O)C(=O)N[C@@H](C)C(=O)N[C@@H](CCC(=O)O)C(=O)N1CCC[C@H]1C(=O)N[C@@H](CCC(=O)O)C(=O)N[C@@H](CCC(=O)O)C(=O)N[C@@H](CC(C)C)C(=O)N[C@@H](CCC(N)=O)C(=O)N[C@@H](CCCNC(=N)N)C(=O)N[C@@H](Cc1ccc(O)cc1)C(=O)N[C@@H](Cc1ccc(O)cc1)C(=O)N[C@H](C(=O)N[C@@H](C)C(=O)N[C@@H](CC(C)C)C(=O)N[C@@H](CCCNC(=N)N)C(=O)N[C@@H](Cc1c[nH]cn1)C(=O)N[C@@H](Cc1ccc(O)cc1)C(=O)N[C@@H](Cc1ccc(O)cc1)C(=O)N[C@@H](CC(N)=O)C(=O)N[C@@H](Cc1c[nH]c2ccccc12)C(=O)N[C@@H](CC(C)C)C(=O)N[C@H](C(=O)N[C@@H](CCCNC(=N)N)C(=O)N[C@@H](CCC(N)=O)C(=O)N[C@@H](CCCNC(=N)N)C(=O)N[C@@H](Cc1ccc(O)cc1)C(N)=O)[C@@H](C)O)C(C)C
B4: Compound 1 (peptide)
peptide: Isovaleryl-APEK([Ahx-γGlu-C18 diacid])PEADAEPEELQRYYIALRHYYNWLTRQRY-NH2
SMILES: CC[C@H](C)[C@H](NC(=O)[C@H](Cc1ccc(O)cc1)NC(=O)[C@H](Cc1ccc(O)cc1)NC(=O)[C@H](CCCNC(=N)N)NC(=O)[C@H](CCC(N)=O)NC(=O)[C@H](CC(C)C)NC(=O)[C@H](CCC(=O)O)NC(=O)[C@H](CCC(=O)O)NC(=O)[C@@H]1CCCN1C(=O)[C@H](CCC(=O)O)NC(=O)[C@H](C)NC(=O)[C@H](CC(=O)O)NC(=O)[C@H](C)NC(=O)[C@H](CCC(=O)O)NC(=O)[C@@H]1CCCN1C(=O)[C@H](CCCCNC(=O)CCCCCNC(=O)CC[C@H](NC(=O)CCCCCCCCCCCCCCCCC(=O)O)C(=O)O)NC(=O)[C@H](CCC(=O)O)NC(=O)[C@@H]1CCCN1C(=O)[C@H](C)NC(=O)CC(C)C)C(=O)N[C@@H](C)C(=O)N[C@@H](CC(C)C)C(=O)N[C@@H](CCCNC(=N)N)C(=O)N[C@@H](Cc1c[nH]cn1)C(=O)N[C@@H](Cc1ccc(O)cc1)C(=O)N[C@@H](Cc1ccc(O)cc1)C(=O)N[C@@H](CC(N)=O)C(=O)N[C@@H](Cc1c[nH]c2ccccc12)C(=O)N[C@@H](CC(C)C)C(=O)N[C@H](C(=O)N[C@@H](CCCNC(=N)N)C(=O)N[C@@H](CCC(N)=O)C(=O)N[C@@H](CCCNC(=N)N)C(=O)N[C@@H](Cc1ccc(O)cc1)C(N)=O)[C@@H](C)O
B5: Compound 5 (peptide)
peptide: Isovaleryl-APAK([Ahx-γGlu-C18 diacid])PEEDASPEELQRQYVSLRHYYNWLTRQRY-NH2
SMILES: CC(C)CC(=O)N[C@@H](C)C(=O)N1CCC[C@H]1C(=O)N[C@@H](C)C(=O)N[C@@H](CCCCNC(=O)CCCCCNC(=O)CC[C@H](NC(=O)CCCCCCCCCCCCCCCCC(=O)O)C(=O)O)C(=O)N1CCC[C@H]1C(=O)N[C@@H](CCC(=O)O)C(=O)N[C@@H](CCC(=O)O)C(=O)N[C@@H](CC(=O)O)C(=O)N[C@@H](C)C(=O)N[C@@H](CO)C(=O)N1CCC[C@H]1C(=O)N[C@@H](CCC(=O)O)C(=O)N[C@@H](CCC(=O)O)C(=O)N[C@@H](CC(C)C)C(=O)N[C@@H](CCC(N)=O)C(=O)N[C@@H](CCCNC(=N)N)C(=O)N[C@@H](CCC(N)=O)C(=O)N[C@@H](Cc1ccc(O)cc1)C(=O)N[C@H](C(=O)N[C@@H](CO)C(=O)N[C@@H](CC(C)C)C(=O)N[C@@H](CCCNC(=N)N)C(=O)N[C@@H](Cc1c[nH]cn1)C(=O)N[C@@H](Cc1ccc(O)cc1)C(=O)N[C@@H](Cc1ccc(O)cc1)C(=O)N[C@@H](CC(N)=O)C(=O)N[C@@H](Cc1c[nH]c2ccccc12)C(=O)N[C@@H](CC(C)C)C(=O)N[C@H](C(=O)N[C@@H](CCCNC(=N)N)C(=O)N[C@@H](CCC(N)=O)C(=O)N[C@@H](CCCNC(=N)N)C(=O)N[C@@H](Cc1ccc(O)cc1)C(N)=O)[C@@H](C)O)C(C)C
B6: Compound 4 (peptide)
peptide: Isovaleryl-APEK([Ahx-γGlu-C18 diacid])PEEAAEPEELQRYYVSLRHYYNWLTRQRY-NH2
SMILES: CC(C)CC(=O)N[C@@H](C)C(=O)N1CCC[C@H]1C(=O)N[C@@H](CCC(=O)O)C(=O)N[C@@H](CCCCNC(=O)CCCCCNC(=O)CC[C@H](NC(=O)CCCCCCCCCCCCCCCCC(=O)O)C(=O)O)C(=O)N1CCC[C@H]1C(=O)N[C@@H](CCC(=O)O)C(=O)N[C@@H](CCC(=O)O)C(=O)N[C@@H](C)C(=O)N[C@@H](C)C(=O)N[C@@H](CCC(=O)O)C(=O)N1CCC[C@H]1C(=O)N[C@@H](CCC(=O)O)C(=O)N[C@@H](CCC(=O)O)C(=O)N[C@@H](CC(C)C)C(=O)N[C@@H](CCC(N)=O)C(=O)N[C@@H](CCCNC(=N)N)C(=O)N[C@@H](Cc1ccc(O)cc1)C(=O)N[C@@H](Cc1ccc(O)cc1)C(=O)N[C@H](C(=O)N[C@@H](CO)C(=O)N[C@@H](CC(C)C)C(=O)N[C@@H](CCCNC(=N)N)C(=O)N[C@@H](Cc1c[nH]cn1)C(=O)N[C@@H](Cc1ccc(O)cc1)C(=O)N[C@@H](Cc1ccc(O)cc1)C(=O)N[C@@H](CC(N)=O)C(=O)N[C@@H](Cc1c[nH]c2ccccc12)C(=O)N[C@@H](CC(C)C)C(=O)N[C@H](C(=O)N[C@@H](CCCNC(=N)N)C(=O)N[C@@H](CCC(N)=O)C(=O)N[C@@H](CCCNC(=N)N)C(=O)N[C@@H](Cc1ccc(O)cc1)C(N)=O)[C@@H](C)O)C(C)C

The target of this test is T1, human NPY2 receptor. As to the kind of experiment: RLB: displacement of 125I-PYY(1-36) from hNPY2R membranes. On the procedure: The filtration RLB assay was carried out in 96-well plates in a final volume of 100 μl per well. Freeze-dried test peptides were dissolved in 100% dimethyl sulfoxide (DMSO) to stock solutions of 1 mM and serial dilutions were performed in assay buffer (50 mM HEPES, 5 mM MgCl₂, 1 mM CaCl₂), pH 7.4) containing 0.2% ovalbumin. […] Next, 80 μL membranes (HTS066M, ChemiSCREEN™ Human Neuropeptide Y2 Receptor Membrane Preparation, CHEMICON) were added to each well to give a final protein concentration of 0.5 μg/well. The plates were sealed and incubated at room temperature for 2 hours in a plate shaker set at 400 rpm. The incubation was stopped by vacuum filtration onto 0.5% polyethylene amine (PEI) presoaked GF/C filters using a 96-well FilterMate™ harvester (Perkin Elmer) followed by four washes with 300 μl/well ice-cold wash buffer (50 mM HEPES, 500 mM NaCl, pH7.4). Filter plates were then dried for 60 min at room temperature and the bottom of the plates was sealed with backing tape UniFilter-96. Finally, 50 μl/well scintillation counter cocktail (Microscint20, Packard) was added and the radioactivity was counted in the Packard TopCount NXT scintillation counter. IC₅₀ values (the half maximal inhibitory concentration of the agonist) were calculated by nonlinear regression analysis of sigmoidal dose-response curves.
In general terms: Displacement assays read how much labelled ligand stays bound in the presence of the test substance.
What is called Ki is the equilibrium dissociation constant of an inhibitor or competing ligand from its target. As for B1, the Ki is 4.07 nM.
In turn, B2 showed an inhibition constant (Ki) of 106 nM.
With B3 the figure was 1.57 nM.
As for B4, the figure is 2.05 nM.
B5 gave a Ki of 12.7 nM.
As for B6, the figure is 4.65 nM.

The record behind these values is patent publication US20260015399A1 (Boehringer Ingelheim, published 2026).
